Source: article PMC5595370

Columns and labels:
[1] = target: HPV59 L1 C175S mutant after limited trypsin digestion (crystallized pentamer) (human papillomavirus type 59); assay: AUC
[2] = target: HPV59 L1 C175S mutant after limited trypsin digestion (crystallized pentamer) (human papillomavirus type 59); assay: crystal structure

## HPV59 L1 C175S mutant after limited trypsin digestion (crystallized pentamer) (domain or fragment)
[1]
  stoichiometry N: 5
[2]
  stoichiometry N: 5
